Laboratory results taken from patent US10441663B2, “Methods for treating cancer” (Bicycle Therapeutics Limited, priority 2016, dated 2019).
*1 amine or outer side, *2 acyl side, *3 side chain or, on linkers, in order; H or OH if unused. Where a SMILES comes first, the peptide text is derived from it. Bridges are numbered along the chain shown (N, C = ends). [ ]: non-standard residue; d: D form. The star is where a group is joined. ξ: configuration not given here. X2 = COc1cc2cc(c1Cl)N(C)C(=O)C[C@H](OC(=O)[C@H](C)N(C)C(=O)CCSC1CC(=O)N(CC3CCC(C(=O)*)CC3)C1=O)[C@@]1(C)O[C@H]1[C@H](C)[C@@H]1C[C@@](O)(NC(=O)O1)[C@H](OC)/C=C/C=C(\C)C2; 1Nal = N[C@@H](Cc1cccc2ccccc12)C(=O)O; TBMB = c1c(C[*:1])cc(C[*:3])cc1C[*:2]; Tle = CC(C)(C)[C@H](N)C(=O)O; ξA = CC(N)C(=O)O; Sar = CNCC(=O)O

What was measured:
[1] = tested on: EBC-1 xenograft; assay: Efficacy of BT1721 in EBC-1 xenograft model (Example 6); format: in vivo, Mus Musculus; details: for Tumor Size: Mean ± SEM
Description: The objective of this study was to evaluate the anti-tumor efficacy of BT1721 in EBC-1 xenograft model in female BALB/c nude mice.
The EBC-1 tumor cells were maintained in vitro as a monolayer culture in RPMI1640 medium supplemented with 10% heat inactivated fetal bovine serum at 37° C. in an atmosphere of 5% CO2 in air. The tumor cells were routinely subcultured twice weekly by trypsin-EDTA treatment. The cells growing in an exponential growth phase were harvested and counted for tumor inoculation.
Each mouse was inoculated subcutaneously at the right flank with EBC-1 tumor cells (10×10^6) in 0.2 ml of PBS for tumor development. The treatments were started on Day 7 after the tumor inoculation when the average tumor size reached approximately 152 mm^3. Each group consisted of 3 tumor-bearing mice. The testing articles were administrated to the mice according to the predetermined regimen as shown in the experimental design (Table 43).
All the procedures related to animal handling, care and the treatment in the study were performed according to the guidelines of the Association for Assessment and Accreditation of Laboratory Animal Care (AAALAC). At the time of routine monitoring, the animals were daily checked for any effects of tumor growth and treatments on normal behavior such as mobility, food and water consumption (by looking only), body weight gain/loss (body weights were measured every day), eye/hair matting and any other abnormal effect as stated in the protocol. Death and observed clinical signs were recorded on the basis of the numbers of animals within each subset.
The major endpoint was to see if the tumor growth could be delayed or mice could be cured. Tumor size was measured three times weekly in two dimensions using a caliper, and the volume was expressed in mm^3 using the formula: V=0.5 a×b^2 where a and b are the long and short diameters of the tumor, respectively. The tumor size was then used for calculations of T/C value. The T/C value (in percent) is an indication of antitumor effectiveness; T and C are the mean volumes of the treated and control groups, respectively, on a given day.
TGI was calculated for each group using the formula: TGI (%)=[1−(Ti−T0)/(Vi−V0)]×100; Ti is the average tumor volume of a treatment group on a given day, T0 is the average tumor volume of the treatment group on the day of treatment start, Vi is the average tumor volume of the vehicle control group on the same day with Ti, and V0 is the average tumor volume of the vehicle group on the day of treatment start.
Summary statistics, including mean and the standard error of the mean (SEM), are provided for the tumor volume of each group at each time point.
Statistical analysis of difference in tumor volume among the groups was conducted on the data obtained at the best therapeutic time point after the final dose.
A one-way ANOVA was performed to compare tumor volume among groups, and when a significant F-statistics (a ratio of treatment variance to the error variance) was obtained, comparisons between groups were carried out with Games-Howell test. All data were analyzed using Prism. P<0.05 was considered to be statistically significant.

[2] = tested on: HT1080 cell line; assay: In vitro cytotoxicity, ATP endpoint assay after 72 hours incubation; format: cell-based; details: ATP endpoint, HT-1080 cells
Description: To evaluate the in vitro cytotoxicity of BT1718 and BT1721 in an HT1080 cell line using an ATP endpoint assay after 72 hours incubation.
Cells were seeded in 96 well plates (75 μl/well, HT1080=7500−15000 cell/well) and incubated overnight at 37° C.+5% CO2.
The day after cell seeding, serial dilutions (1:5) of BT1718 and BT1721 were prepared in DMSO and diluted 1:71 in cell culture media to give 4× final concentrations. Twenty five μl/well was added to the cells (2 μM or 5 μM top final concentration of BT1718 and 2 μM or 5 μM top final concentration of BT1721, <0.6% final DMSO).
Cells were 30-50% confluent upon dosing. Control wells containing 5 μM final concentration of staurosporine (positive control), lysis buffer (1% NP40, 20 mM Tris pH8, 137 mM NaCl, 10% glycerol, 2 mM EDTA, 1 mM Na Orthovanadate, 10 μg/ml leupeptin, 10 μg/ml aprotinin) positive control or media (negative control), were also included. Plates were sealed with gas permeable seals and incubated at 37° C.+5% CO2 for 72 hours. No wash steps were performed.
After a total of 72 hours after dosing, ATPLite reagent (Perkin Elmer) was equilibrated to room temperate and reconstituted in the supplied buffer as per the manufacturer's instructions. One hundred μl 1× detection reagent was added per well. Plates were sealed, protected from light and shaken gently for 20 minutes to ensure complete cell lysis before luminescence was read using a BMG Pherastar FS plate reader. […] Data was analysed using GraphPad Prism. Non-linear regression fit was used to calculate a relative IC50 for each toxic agent: Y=Bottom+(Top−Bottom)/(1+10^((Log Ic50−X)*HillSlope)) where the IC50 is defined as 50% of the total cell kill achieved at the top concentration of toxin.

COc1cc2cc(c1Cl)N(C)C(=O)C[C@H](OC(=O)[C@H](C)N(C)C(=O)CCSC1CC(=O)N(CC3CCC(C(=O)NCCCC[C@H](NC(C)=O)C(=O)NCC(=O)N(C)CC(=O)N(C)CC(=O)N(C)CC(=O)N(C)CC(=O)N(C)CC(=O)N(C)CC(=O)N(C)CC(=O)N(C)CC(=O)N(C)CC(=O)N(C)CC(=O)NC(C)C(=O)N[C@H]4CSCc5cc6cc(c5)CSC[C@H](NC(=O)[C@@H](C)NC(=O)[C@H](Cc5cccc7ccccc57)NC(=O)[C@H](CCC(=O)O)NC(=O)[C@H](CC(N)=O)NC(=O)[C@@H](C)NC4=O)C(=O)N[C@@H](CCC(=O)O)C(=O)N[C@@H](CC(=O)O)C(=O)N[C@@H](Cc4ccccc4)C(=O)N[C@@H](Cc4ccc(O)cc4)C(=O)N[C@@H](CC(=O)O)C(=O)N[C@@H](C(C)(C)C)C(=O)N[C@H](C(N)=O)CSC6)CC3)C1=O)[C@@]1(C)O[C@H]1[C@H](C)[C@@H]1C[C@@](O)(NC(=O)O1)[C@H](OC)/C=C/C=C(\C)C2 (stereo partly shown) [BT1721] (Ac-K(X2)G[Sar][Sar][Sar][Sar][Sar][Sar][Sar][Sar][Sar][Sar][ξA]C[dA]NE[1Nal][dA]CEDFYD[Tle]C-NH2; linker 14-20-27 via TBMB)
effect on tumor growth ([1]; 1 mg/kg, 3 mg/kg and 10 mg/kg, day 14): didn't show any inhibitory effect on tumor growth
tumor volume trace over time ([1]; 1 mg/kg, tiw, day 0): 164 ± 31 mm^3
tumor volume trace over time ([1]; 1 mg/kg, tiw, day 2): 291 ± 57 mm^3
tumor volume trace over time ([1]; 1 mg/kg, tiw, day 4): 367 ± 68 mm^3
tumor volume trace over time ([1]; 1 mg/kg, tiw, day 7): 640 ± 39 mm^3
tumor volume trace over time ([1]; 1 mg/kg, tiw, day 9): 784 ± 40 mm^3
tumor volume trace over time ([1]; 1 mg/kg, tiw, day 11): 874 ± 50 mm^3
T/C ([1]; 1 mg/kg, tiw, day 14): 22%
TGI ([1]; 1 mg/kg, tiw, day 14): 82%
tumor volume trace over time ([1]; 1 mg/kg, tiw, day 14): 981 ± 47 mm^3
Tumor Size ([1]; 1 mg/kg, tiw, day 14): 981 ± 47 mm^3
tumor volume trace over time ([1]; 3 mg/kg, tiw, day 0): 142 ± 18 mm^3
tumor volume trace over time ([1]; 3 mg/kg, tiw, day 2): 207 ± 60 mm^3
tumor volume trace over time ([1]; 3 mg/kg, tiw, day 4): 310 ± 61 mm^3
tumor volume trace over time ([1]; 3 mg/kg, tiw, day 7): 531 ± 116 mm^3
tumor volume trace over time ([1]; 3 mg/kg, tiw, day 9): 708 ± 132 mm^3
tumor volume trace over time ([1]; 3 mg/kg, tiw, day 11): 761 ± 147 mm^3
T/C ([1]; 3 mg/kg, tiw, day 14): 26%
TGI ([1]; 3 mg/kg, tiw, day 14): 77%
tumor volume trace over time ([1]; 3 mg/kg, tiw, day 14): 920 ± 210 mm^3
Tumor Size ([1]; 3 mg/kg, tiw, day 14): 920 ± 210 mm^3
effect on tumor growth ([1]; 10 mg/kg tiw): did not show any inhibitory effect on tumor growth
tumor volume trace over time ([1]; 10 mg/kg, tiw, day 0): 160 ± 25 mm^3
tumor volume trace over time ([1]; 10 mg/kg, tiw, day 2): 249 ± 82 mm^3
tumor volume trace over time ([1]; 10 mg/kg, tiw, day 4): 407 ± 85 mm^3
tumor volume trace over time ([1]; 10 mg/kg, tiw, day 7): 632 ± 149 mm^3
tumor volume trace over time ([1]; 10 mg/kg, tiw, day 9): 735 ± 201 mm^3
tumor volume trace over time ([1]; 10 mg/kg, tiw, day 11): 858 ± 72 mm^3
T/C ([1]; 10 mg/kg, tiw, day 14): 6%
TGI ([1]; 10 mg/kg, tiw, day 14): 96%
tumor volume trace over time ([1]; 10 mg/kg, tiw, day 14): 1142 ± 147 mm^3
Tumor Size ([1]; 10 mg/kg, tiw, day 14): 1142 ± 147 mm^3
Body Weight ([1]; 1 mpk, tiw, day 0): 22.2 ± 0.7 g
Body Weight (% Change) ([1]; 1 mpk, tiw, day 0): 0.0%
Body Weight ([1]; 1 mpk, tiw, day 2): 22.0 ± 0.5 g
Body Weight (% Change) ([1]; 1 mpk, tiw, day 2): −1.1 ± 0.7%
Body Weight ([1]; 1 mpk, tiw, day 4): 22.4 ± 0.8 g
Body Weight (% Change) ([1]; 1 mpk, tiw, day 4): 0.8 ± 2.3%
Body Weight ([1]; 1 mpk, tiw, day 7): 22.5 ± 0.9 g
Body Weight (% Change) ([1]; 1 mpk, tiw, day 7): 1.3 ± 1.4%
Body Weight ([1]; 1 mpk, tiw, day 9): 23.2 ± 0.8 g
Body Weight (% Change) ([1]; 1 mpk, tiw, day 9): 4.4 ± 0.8%
Body Weight ([1]; 1 mpk, tiw, day 11): 22.9 ± 1.0 g
Body Weight (% Change) ([1]; 1 mpk, tiw, day 11): 3.1 ± 1.7%
Body Weight ([1]; 1 mpk, tiw, day 14): 23.3 ± 1.1 g
Body Weight (% Change) ([1]; 1 mpk, tiw, day 14): 4.6 ± 2.0%
Body Weight ([1]; 3 mpk tiw, day 0): 22.9 ± 0.4 g
Body Weight (% Change) ([1]; 3 mpk tiw, day 0): 0.0%
Body Weight ([1]; 3 mpk tiw, day 2): 22.3 ± 0.6 g
Body Weight (% Change) ([1]; 3 mpk tiw, day 2): −2.8 ± 1.3%
Body Weight ([1]; 3 mpk tiw, day 4): 22.3 ± 0.8 g
Body Weight (% Change) ([1]; 3 mpk tiw, day 4): −2.8 ± 1.9%
Body Weight ([1]; 3 mpk tiw, day 7): 23.1 ± 0.7 g
Body Weight (% Change) ([1]; 3 mpk tiw, day 7): 0.8 ± 1.8%
Body Weight ([1]; 3 mpk tiw, day 9): 23.9 ± 1.0 g
Body Weight (% Change) ([1]; 3 mpk tiw, day 9): 4.0 ± 2.8%
Body Weight ([1]; 3 mpk tiw, day 11): 24.0 ± 1.0 g
Body Weight (% Change) ([1]; 3 mpk tiw, day 11): 4.7 ± 2.7%
Body Weight ([1]; 3 mpk tiw, day 14): 24.6 ± 1.0 g
Body Weight (% Change) ([1]; 3 mpk tiw, day 14): 7.2 ± 2.9%
Body Weight ([1]; 10 mpk tiw, day 0): 23.2 ± 0.5 g
Body Weight (% Change) ([1]; 10 mpk tiw, day 0): 0.0%
Body Weight ([1]; 10 mpk tiw, day 2): 23.2 ± 0.3 g
Body Weight (% Change) ([1]; 10 mpk tiw, day 2): 0.0 ± 1.5%
Body Weight ([1]; 10 mpk tiw, day 4): 23.2 ± 0.4 g
Body Weight (% Change) ([1]; 10 mpk tiw, day 4): −0.3 ± 0.5%
Body Weight ([1]; 10 mpk tiw, day 7): 23.9 ± 0.5 g
Body Weight (% Change) ([1]; 10 mpk tiw, day 7): 2.8 ± 0.6%
Body Weight ([1]; 10 mpk tiw, day 9): 24.4 ± 0.4 g
Body Weight (% Change) ([1]; 10 mpk tiw, day 9): 5.1 ± 0.6%
Body Weight ([1]; 10 mpk tiw, day 11): 24.4 ± 0.6 g
Body Weight (% Change) ([1]; 10 mpk tiw, day 11): 5.0 ± 0.3%
Body Weight ([1]; 10 mpk tiw, day 14): 25.3 ± 0.5 g
Body Weight (% Change) ([1]; 10 mpk tiw, day 14): 8.8 ± 0.7%
body weight effect ([1]; mouse, in vivo): maintained their bodyweight well
IC50 [2]: 8.9 nM
